Source: US20170190753A1 (LABORATOIRE FRANCAIS DU FRACTIONNEMENT ET DES …, published 2017)
One block for each binder: values may come before it.

Biological target: C3 convertase complex (UniProt P01024 23-1663; P00751 260-764)
Assay: cell-based or functional assay
Throughout, for C3 convertase activity % of the control: test concentration or dose not given here.

C3 convertase complex, sequence (P01024 23-1663, chain 1 of 2): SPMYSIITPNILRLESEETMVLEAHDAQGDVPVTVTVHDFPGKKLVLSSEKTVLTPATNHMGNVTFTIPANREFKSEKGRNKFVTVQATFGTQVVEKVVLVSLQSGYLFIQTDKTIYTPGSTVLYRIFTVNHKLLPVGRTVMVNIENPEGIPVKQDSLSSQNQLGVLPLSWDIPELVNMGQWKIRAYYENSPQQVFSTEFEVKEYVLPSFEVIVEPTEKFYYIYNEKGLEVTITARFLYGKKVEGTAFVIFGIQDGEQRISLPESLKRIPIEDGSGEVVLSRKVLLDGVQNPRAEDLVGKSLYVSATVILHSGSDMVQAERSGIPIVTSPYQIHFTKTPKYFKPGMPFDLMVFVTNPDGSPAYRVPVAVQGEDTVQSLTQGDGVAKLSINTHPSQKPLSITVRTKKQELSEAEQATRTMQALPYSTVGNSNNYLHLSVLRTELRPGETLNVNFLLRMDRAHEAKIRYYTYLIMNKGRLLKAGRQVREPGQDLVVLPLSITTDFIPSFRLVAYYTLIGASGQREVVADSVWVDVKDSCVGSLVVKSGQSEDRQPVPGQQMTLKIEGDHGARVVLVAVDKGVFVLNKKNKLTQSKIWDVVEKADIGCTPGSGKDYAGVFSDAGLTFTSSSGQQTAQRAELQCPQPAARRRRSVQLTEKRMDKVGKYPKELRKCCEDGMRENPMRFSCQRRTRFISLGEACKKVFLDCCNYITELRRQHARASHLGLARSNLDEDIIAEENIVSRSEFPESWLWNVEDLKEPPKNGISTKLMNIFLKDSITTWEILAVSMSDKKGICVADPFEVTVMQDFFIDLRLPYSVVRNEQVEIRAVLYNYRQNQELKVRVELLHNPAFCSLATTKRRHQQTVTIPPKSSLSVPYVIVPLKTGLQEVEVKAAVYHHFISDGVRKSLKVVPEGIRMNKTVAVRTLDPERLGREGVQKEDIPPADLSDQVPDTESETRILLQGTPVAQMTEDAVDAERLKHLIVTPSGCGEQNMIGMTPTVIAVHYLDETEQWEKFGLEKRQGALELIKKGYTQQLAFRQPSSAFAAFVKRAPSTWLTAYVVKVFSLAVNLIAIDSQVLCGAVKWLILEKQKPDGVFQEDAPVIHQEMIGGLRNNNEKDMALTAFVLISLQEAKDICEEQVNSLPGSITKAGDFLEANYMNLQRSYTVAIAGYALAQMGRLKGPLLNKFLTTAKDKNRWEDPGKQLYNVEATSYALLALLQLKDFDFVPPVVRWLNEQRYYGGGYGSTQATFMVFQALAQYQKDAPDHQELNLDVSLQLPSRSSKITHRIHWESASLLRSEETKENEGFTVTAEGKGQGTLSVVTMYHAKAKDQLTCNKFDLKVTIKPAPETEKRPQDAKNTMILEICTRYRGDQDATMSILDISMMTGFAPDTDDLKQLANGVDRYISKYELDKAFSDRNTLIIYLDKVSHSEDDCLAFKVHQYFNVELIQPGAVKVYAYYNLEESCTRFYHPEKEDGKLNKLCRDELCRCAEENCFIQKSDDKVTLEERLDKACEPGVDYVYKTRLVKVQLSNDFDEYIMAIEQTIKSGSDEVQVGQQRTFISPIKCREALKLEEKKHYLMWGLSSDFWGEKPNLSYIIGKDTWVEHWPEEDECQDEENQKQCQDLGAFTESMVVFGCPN
C3 convertase complex, sequence (P00751 260-764, chain 2 of 2): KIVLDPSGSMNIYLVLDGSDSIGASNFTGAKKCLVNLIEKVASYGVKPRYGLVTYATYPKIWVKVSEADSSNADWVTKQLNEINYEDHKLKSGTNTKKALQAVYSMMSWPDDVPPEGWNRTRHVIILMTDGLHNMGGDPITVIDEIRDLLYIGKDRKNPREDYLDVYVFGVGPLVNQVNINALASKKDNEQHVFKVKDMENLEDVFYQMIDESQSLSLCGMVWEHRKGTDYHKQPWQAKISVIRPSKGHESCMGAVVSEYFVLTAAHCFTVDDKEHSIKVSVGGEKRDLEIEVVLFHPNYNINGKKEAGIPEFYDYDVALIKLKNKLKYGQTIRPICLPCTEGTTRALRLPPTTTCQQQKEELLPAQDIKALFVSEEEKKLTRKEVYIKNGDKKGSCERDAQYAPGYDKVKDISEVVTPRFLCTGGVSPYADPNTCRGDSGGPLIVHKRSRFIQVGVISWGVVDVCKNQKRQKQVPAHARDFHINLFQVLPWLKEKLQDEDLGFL

B1: pCEP4-1NT4-11CT20 (other)
chain: EDCNELPPRRNTEILTGSWSDQTYPEGTQAIYKCRPGYRSLGNVIMVCRKGEWVALNPLRKCQKRPCGHPGDTPFGTFTLTGGNVFEYGVKAVYTCNEGYQLLGEINYRECDTDGWTNDIPICEVVKCLPVTAPENGKIVSSAMEPDREYHFGQAVRFVCNSGYKIEGDEEMHCSDDGFWSKEKPKCVEISCKSPDVINGSPISQKIIYKENERFQYKCNMGYEYSERGDAVCTESGWRPLPSCEEKSGASGCGPPPELLNGNVKEKTKEEYGHSEVVEYYCNPRFLMKGPNKIQCVDGEWTTLPVCIVEESTCGDIPELEHGWAQLSSPPYYYGDSVEFNCSESFTMIGHRSITCIHGVWTQLPQCVAIDKLKKCKSSNLIILEEHLKNKKEFDHNSNIRYRCRGKEGWIHTVCINGRWDPEVNCSMAQIQLCPPPPQIPNSHNMTTTLNYRDGEKVSVLCQENYLIQEGEEITCKDGRWQSIPLCVEKIPCSQPPQIEHGTINSSRSSQESYAHGTKLSYTCEGGFRISEENETTCYMGKWSSPPQCEGLPCKSPPEISHGVVAHMSDSYQYGEEVTYKCFEGFGIDGPAIAKCLGEKWSHPPSCIKTDCLSLPSFENAIPMGEKKDVYKAGEQVTYTCATYYKMDGASNVTCINSRWTGRPTCRDTSCVNPPTVQNAYIVSRQMSKYPSGERVRYQCRSPYEMFGDEEVMCLNGNWTEPPQCKDSTGKCGPPPPIDNGDITSFPLSVYAPASSVEYQCQNLYQLEGNKRITCRNGQWSEPPKCLHPCVISREIMENYNIALRWTAKQKLYSRTGESVEFVCKRGYRLSSRSHTLRTTCWDGKLEYPTCAKRGGSGHHHHHH
C3 convertase activity % of the control: 17 % of the control
C3 convertase activity IC50: 0.546 µg/mL

B2: pCEP4-1NT4-9CT20 (other)
chain: EDCNELPPRRNTEILTGSWSDQTYPEGTQAIYKCRPGYRSLGNVIMVCRKGEWVALNPLRKCQKRPCGHPGDTPFGTFTLTGGNVFEYGVKAVYTCNEGYQLLGEINYRECDTDGWTNDIPICEVVKCLPVTAPENGKIVSSAMEPDREYHFGQAVRFVCNSGYKIEGDEEMHCSDDGFWSKEKPKCVEISCKSPDVINGSPISQKIIYKENERFQYKCNMGYEYSERGDAVCTESGWRPLPSCEEKSGASGCDIPVFMNARTKNDFTWFKLNDTLDYECHDGYESNTGSTTGSIVCGYNGWSDLPICYERECELPKIDVHLVPDRKKDQYKVGEVLKFSCKPGFTIVGPNSVQCYHFGLSPDLPICKEQVQSCGPPPELLNGNVKEKTKEEYGHSEVVEYYCNPRFLMKGPNKIQCVDGEWTTLPVCIVEESTCGDIPELEHGWAQLSSPPYYYGDSVEFNCSESFTMIGHRSITCIHGVWTQLPQCVAIDKLKKCKSSNLIILEEHLKNKKEFDHNSNIRYRCRGKEGWIHTVCINGRWDPEVNCSMAQIQLCPPPPQIPNSHNMTTTLNYRDGEKVSVLCQENYLIQEGEEITCKDGRWQSIPLCVEKIPCSQPPQIEHGTINSSRSSQESYAHGTKLSYTCEGGFRISEENETTCYMGKWSSPPQCEGLPCKSPPEISHGVVAHMSDSYQYGEEVTYKCFEGFGIDGPAIAKCLGEKWSHPPSCIKTDCLSLPSFENAIPMGEKKDVYKAGEQVTYTCATYYKMDGASNVTCINSRWTGRPTCRDTSCVNPPTVQNAYIVSRQMSKYPSGERVRYQCRSPYEMFGDEEVMCLNGNWTEPPQCKDSTGKCGPPPPIDNGDITSFPLSVYAPASSVEYQCQNLYQLEGNKRITCRNGQWSEPPKCLHPCVISREIMENYNIALRWTAKQKLYSRTGESVEFVCKRGYRLSSRSHTLRTTCWDGKLEYPTCAKRGGSGHHHHHH
C3 convertase activity % of the control: 18 % of the control
C3 convertase activity IC50: 0.536 µg/mL

B5: pCEP4-1NT7-11CT20 (other)
chain: EDCNELPPRRNTEILTGSWSDQTYPEGTQAIYKCRPGYRSLGNVIMVCRKGEWVALNPLRKCQKRPCGHPGDTPFGTFTLTGGNVFEYGVKAVYTCNEGYQLLGEINYRECDTDGWTNDIPICEVVKCLPVTAPENGKIVSSAMEPDREYHFGQAVRFVCNSGYKIEGDEEMHCSDDGFWSKEKPKCVEISCKSPDVINGSPISQKIIYKENERFQYKCNMGYEYSERGDAVCTESGWRPLPSCEEKSCDNPYIPNGDYSPLRIKHRTGDEITYQCRNGFYPATRGNTAKCTSTGWIPAPRCTLKPCDYPDIKHGGLYHENMRRPYFPVAVGKYYSYYCDEHFETPSGSYWDHIHCTQDGWSPAVPCLRKCYFPYLENGYNQNYGRKFVQGKSIDVACHPGYALPKAQTTVTCMENGWSPTPRCIRVKTGASGCGPPPELLNGNVKEKTKEEYGHSEVVEYYCNPRFLMKGPNKIQCVDGEWTTLPVCIVEESTCGDIPELEHGWAQLSSPPYYYGDSVEFNCSESFTMIGHRSITCIHGVWTQLPQCVAIDKLKKCKSSNLIILEEHLKNKKEFDHNSNIRYRCRGKEGWIHTVCINGRWDPEVNCSMAQIQLCPPPPQIPNSHNMTTTLNYRDGEKVSVLCQENYLIQEGEEITCKDGRWQSIPLCVEKIPCSQPPQIEHGTINSSRSSQESYAHGTKLSYTCEGGFRISEENETTCYMGKWSSPPQCEGLPCKSPPEISHGVVAHMSDSYQYGEEVTYKCFEGFGIDGPAIAKCLGEKWSHPPSCIKTDCLSLPSFENAIPMGEKKDVYKAGEQVTYTCATYYKMDGASNVTCINSRWTGRPTCRDTSCVNPPTVQNAYIVSRQMSKYPSGERVRYQCRSPYEMFGDEEVMCLNGNWTEPPQCKDSTGKCGPPPPIDNGDITSFPLSVYAPASSVEYQCQNLYQLEGNKRITCRNGQWSEPPKCLHPCVISREIMENYNIALRWTAKQKLYSRTGESVEFVCKRGYRLSSRSHTLRTTCWDGKLEYPTCAKRGGSGHHHHHH
C3 convertase activity % of the control: 134 % of the control
C3 convertase activity IC50: 0.265 µg/mL

More lines, now with the values ahead:

C3 convertase activity % of the control: 27 % of the control
C3 convertase activity IC50: 0.489 µg/mL
B3: pCEP4-1NT8-9CT20 (other)
chain: EDCNELPPRRNTEILTGSWSDQTYPEGTQAIYKCRPGYRSLGNVIMVCRKGEWVALNPLRKCQKRPCGHPGDTPFGTFTLTGGNVFEYGVKAVYTCNEGYQLLGEINYRECDTDGWTNDIPICEVVKCLPVTAPENGKIVSSAMEPDREYHFGQAVRFVCNSGYKIEGDEEMHCSDDGFWSKEKPKCVEISCKSPDVINGSPISQKIIYKENERFQYKCNMGYEYSERGDAVCTESGWRPLPSCEEKSCDNPYIPNGDYSPLRIKHRTGDEITYQCRNGFYPATRGNTAKCTSTGWIPAPRCTLKPCDYPDIKHGGLYHENMRRPYFPVAVGKYYSYYCDEHFETPSGSYWDHIHCTQDGWSPAVPCLRKCYFPYLENGYNQNYGRKFVQGKSIDVACHPGYALPKAQTTVTCMENGWSPTPRCIRVKTCSKSSIDIENGFISESQYTYALKEKAKYQCKLGYVTADGETSGSITCGKDGWSAQPTCIKSGASGCDIPVFMNARTKNDFTWFKLNDTLDYECHDGYESNTGSTTGSIVCGYNGWSDLPICYERECELPKIDVHLVPDRKKDQYKVGEVLKFSCKPGFTIVGPNSVQCYHFGLSPDLPICKEQVQSCGPPPELLNGNVKEKTKEEYGHSEVVEYYCNPRFLMKGPNKIQCVDGEWTTLPVCIVEESTCGDIPELEHGWAQLSSPPYYYGDSVEFNCSESFTMIGHRSITCIHGVWTQLPQCVAIDKLKKCKSSNLIILEEHLKNKKEFDHNSNIRYRCRGKEGWIHTVCINGRWDPEVNCSMAQIQLCPPPPQIPNSHNMTTTLNYRDGEKVSVLCQENYLIQEGEEITCKDGRWQSIPLCVEKIPCSQPPQIEHGTINSSRSSQESYAHGTKLSYTCEGGFRISEENETTCYMGKWSSPPQCEGLPCKSPPEISHGVVAHMSDSYQYGEEVTYKCFEGFGIDGPAIAKCLGEKWSHPPSCIKTDCLSLPSFENAIPMGEKKDVYKAGEQVTYTCATYYKMDGASNVTCINSRWTGRPTCRDTSCVNPPTVQNAYIVSRQMSKYPSGERVRYQCRSPYEMFGDEEVMCLNGNWTEPPQCKDSTGKCGPPPPIDNGDITSFPLSVYAPASSVEYQCQNLYQLEGNKRITCRNGQWSEPPKCLHPCVISREIMENYNIALRWTAKQKLYSRTGESVEFVCKRGYRLSSRSHTLRTTCWDGKLEYPTCAKRGGSGHHHHHH

C3 convertase activity % of the control: 25 % of the control
C3 convertase activity IC50: 0.426 µg/mL
B4: pCEP4-1NT8-16CT20 (other)
chain: EDCNELPPRRNTEILTGSWSDQTYPEGTQAIYKCRPGYRSLGNVIMVCRKGEWVALNPLRKCQKRPCGHPGDTPFGTFTLTGGNVFEYGVKAVYTCNEGYQLLGEINYRECDTDGWTNDIPICEVVKCLPVTAPENGKIVSSAMEPDREYHFGQAVRFVCNSGYKIEGDEEMHCSDDGFWSKEKPKCVEISCKSPDVINGSPISQKIIYKENERFQYKCNMGYEYSERGDAVCTESGWRPLPSCEEKSCDNPYIPNGDYSPLRIKHRTGDEITYQCRNGFYPATRGNTAKCTSTGWIPAPRCTLKPCDYPDIKHGGLYHENMRRPYFPVAVGKYYSYYCDEHFETPSGSYWDHIHCTQDGWSPAVPCLRKCYFPYLENGYNQNYGRKFVQGKSIDVACHPGYALPKAQTTVTCMENGWSPTPRCIRVKTCSKSSIDIENGFISESQYTYALKEKAKYQCKLGYVTADGETSGSITCGKDGWSAQPTCIKSGASGCKSPPEISHGVVAHMSDSYQYGEEVTYKCFEGFGIDGPAIAKCLGEKWSHPPSCIKTDCLSLPSFENAIPMGEKKDVYKAGEQVTYTCATYYKMDGASNVTCINSRWTGRPTCRDTSCVNPPTVQNAYIVSRQMSKYPSGERVRYQCRSPYEMFGDEEVMCLNGNWTEPPQCKDSTGKCGPPPPIDNGDITSFPLSVYAPASSVEYQCQNLYQLEGNKRITCRNGQWSEPPKCLHPCVISREIMENYNIALRWTAKQKLYSRTGESVEFVCKRGYRLSSRSHTLRTTCWDGKLEYPTCAKRGGSGHHHHHH

C3 convertase activity % of the control: 25 % of the control
C3 convertase activity IC50: 0.418 µg/mL
B6: pCEP4-1NT9-16CT20 (other)
chain: EDCNELPPRRNTEILTGSWSDQTYPEGTQAIYKCRPGYRSLGNVIMVCRKGEWVALNPLRKCQKRPCGHPGDTPFGTFTLTGGNVFEYGVKAVYTCNEGYQLLGEINYRECDTDGWTNDIPICEVVKCLPVTAPENGKIVSSAMEPDREYHFGQAVRFVCNSGYKIEGDEEMHCSDDGFWSKEKPKCVEISCKSPDVINGSPISQKIIYKENERFQYKCNMGYEYSERGDAVCTESGWRPLPSCEEKSCDNPYIPNGDYSPLRIKHRTGDEITYQCRNGFYPATRGNTAKCTSTGWIPAPRCTLKPCDYPDIKHGGLYHENMRRPYFPVAVGKYYSYYCDEHFETPSGSYWDHIHCTQDGWSPAVPCLRKCYFPYLENGYNQNYGRKFVQGKSIDVACHPGYALPKAQTTVTCMENGWSPTPRCIRVKTCSKSSIDIENGFISESQYTYALKEKAKYQCKLGYVTADGETSGSITCGKDGWSAQPTCIKSCDIPVFMNARTKNDFTWFKLNDTLDYECHDGYESNTGSTTGSIVCGYNGWSDLPICYEREGASGCKSPPEISHGVVAHMSDSYQYGEEVTYKCFEGFGIDGPAIAKCLGEKWSHPPSCIKTDCLSLPSFENAIPMGEKKDVYKAGEQVTYTCATYYKMDGASNVTCINSRWTGRPTCRDTSCVNPPTVQNAYIVSRQMSKYPSGERVRYQCRSPYEMFGDEEVMCLNGNWTEPPQCKDSTGKCGPPPPIDNGDITSFPLSVYAPASSVEYQCQNLYQLEGNKRITCRNGQWSEPPKCLHPCVISREIMENYNIALRWTAKQKLYSRTGESVEFVCKRGYRLSSRSHTLRTTCWDGKLEYPTCAKRGGSGHHHHHH
